The data set concerns the molecule itself. As to the kind of experiment: SEC; […], pH 8.0, 150 mM NaCl; flow rate 0.4 ml/min; […].

B1: ResR/McdR (ResR_(1-225)), 6x His-tagged (natural protein)
chain: MTQLVTRARSARGSTLGEQPRQDQLDFADHTGTAGDGNDGAAAASGPVQPGLFPDDSVPDELVGYRGPSACQIAGITYRQLDYWARTSLVVPSIRSAAGSGSQRLYSFKDILVLKIVKRLLDTGISLHNIRVAVDHLRQRGVQDLANITLFSDGTTVYECTSAEEVVDLLQGGQGVFGIAVSGAMRELTGVIADFHGERADGGESIAAPEDELASRRKHRDRKIG
notes: also called Rv1830; ERDMAN_2020; not shown: His6, N-terminal, kept
For the protein B1, the binding result is “binds”.

The values are drawn from publication PMC10336103, “ResR/McdR-regulated protein translation machinery contributes to drug resilience in Mycobacterium tuberculosis” (Communications Biology, 2023).
